This is an account of results in paper PMC8950220, “Impact of Fluorinated Ionic Liquids on Human Phenylalanine Hydroxylase—A Potential Drug Delivery System” (Nanomaterials, 2022).

Series [1] concerns the molecule itself. Put plainly: native gel or EMSA; blue native PAGE, NativePAGE 4-16% Bis-Tris gel; hPAH with 0-1.2% v/v [N1112(OH)][C4F9SO3], with and without L-Phe.
Series [2] deals with the molecule itself. Put plainly: SEC; Superdex 200 Increase 10/300, 20 mM HEPES pH 7.0, 200 mM NaCl, 277.15 K; tetramer fraction isolated.
Series [3] concerns the molecule itself. The experiment in a line: SAXS; batch mode, 0.9 mg/mL hPAH in 20 mM HEPES pH 7.0, 200 mM NaCl, 0-1.2% v/v [N1112(OH)][C4F9SO3], no L-Phe; volume fractions of oligomers fitted with OLIGOMER

B1: human phenylalanine hydroxylase (enzyme, UniProt P00439 1-452, looked up)
chain: MSTAVLENPGLGRKLSDFGQETSYIEDNCNQNGAISLIFSLKEEVGALAKVLRLFEENDVNLTHIESRPSRLKKDEYEFFTHLDKRSLPALTNIIKILRHDIGATVHELSRDKKKDTVPWFPRTIQELDRFANQILSYGAELDADHPGFKDPVYRARRKQFADIAYNYRHGQPIPRVEYMEEEKKTWGTVFKTLKSLYKTHACYEYNHIFPLLEKYCGFHEDNIPQLEDVSQFLQTCTGFRLRPVAGLLSSRDFLGGLAFRVFHCTQYIRHGSKPMYTPEPDICHELLGHVPLFSDRSFAQFSQEIGLASLGAPDEYIEKLATIYWFTVEFGLCKQGDSIKAYGAGLLSSFGELQYCLSEKPKLLPLELEKTAIQNYTVTEFQPLYYVAESFNDAKEKVRNFAATIPRPFSVRYDPYTQRIEVLDNTQQLKILADSINSEIGILCSALQKIK
notes: human phenylalanine hydroxylase (hPAH), recombinant full-length, each subunit 52 kDa; No step that cleaves the tag is described, and the enzymatic assays name the protein His6-hPAH, so the tag and linker were probably kept; The tetramer fraction from SEC was the starting material of all assays; also called hPAH; His6-hPAH; source: E. coli Top10, purified (Ni-NTA, SEC on Superdex 200 Increase; …)
What is called stoichiometry N is the number of molecules, sites or subunits per partner or assembly. For B1, the “stoichiometry N” value in series [1] was found to be 8; in series [2], 4; in series [3] it was 2.
